B1: scFv; the commonest letter at each place (parent)
chain 1: EVKLDETGGGLVQPGRPMKLSCVASGFTFSDYWMNWVRQSPEKGLEWVAQIRNKPYNYETYYSDSVKGRFTISRDDSKSSVYLQMNNLRVEDMGIYYCTGSYYGMDYWGQGTSVTVS
chain 2: DVVMTQTPLSLPVSLGDQASISCRSSQSLVHSNGNTYLRWYLQKPGQSPKVLIYKVSNRFSGVPDRFSGSGSGTDFTLKISRVEAEDLGVYFCSQSTHVPWTFGGGTKLEIK

Bounds are passed on as bounds.

The variants in series [1] derive from B1. Kind of series: Kd (Tite-Seq). The note with it: with fluorescein; format: scFv 4-4-20, heavy + light.
Series [2] covers variants of B1. Description: yeast surface expression (ratio to wild type); higher = more expressed. Conditions: format: scFv 4-4-20, heavy + light.

By Kd is commonly meant the free concentration of one partner at which half of the binding sites on the other are occupied at equilibrium, for simple one-to-one binding. On to chain 1 EVKLDETGGGLVQPGRPMKLSCVASGFTFSDYWMNWVRQSPEKGLEWVAQIRNKPYNYETYYSDSVKGRFTISRDDSKSSVYLQMNNLRVEDMGIYYCTGSYKGMDYWWQGTSVTVS chain 2 DVVMTQTPLSLPVSLGDQASISCRSSQSLVHSNGNTYLRWYLQKPGQSPKVLIYKVSNRFSGVPDRFSGSGSGTDFTLKISRVEAEDLGVYFCSQSTHVPWTFGGGTKLEIK [chain 1 Y103K G109W], for which the equilibrium dissociation constant (Kd) in series [1] was at least 10 µM. Moreover, the yeast surface expression in series [2] is 0.123.
For the variant chain 1 EVKLDETGGGLVQPGRPMKLSCVASGFTFSDYWMNWVRQSPEKGLEWVAQIRNKPYNYETYYSDSVKGRFTISRDDSKSSVYLQMNNLRVEDMGIYYCTGSYLGMDYWGQGTSVTVS chain 2 DVVMTQTPLSLPVSLGDQASISCRSSQSLVHSNGNTYLRWYLQKPGQSPKVLIYKVSNRFSGVPDRFSGSGSGTDFTLKISRVEAEDLGVYFCSQSTHVPWTFGGGTKLEIK [chain 1 Y103L], in series [1], the Kd worked out at 0.00708 µM. Further, the yeast surface expression in series [2] worked out at 1.08.
The corresponding values for chain 1 EVKLDETGGGLVQPGRPMKLSCVASGFTFSDYWMNWVRQSPEKGLEWVAQIRNKPYNYETYYSDSVKGRFTISRDDSKSSVYLQMNNLRVEDMGIYYCTGSYLGMHYWFQGTSVTVS chain 2 DVVMTQTPLSLPVSLGDQASISCRSSQSLVHSNGNTYLRWYLQKPGQSPKVLIYKVSNRFSGVPDRFSGSGSGTDFTLKISRVEAEDLGVYFCSQSTHVPWTFGGGTKLEIK [chain 1 Y103L D106H G109F] are at least 10 µM and 0.0981.
For chain 1 EVKLDETGGGLVQPGRPMKLSCVASGFTFSDYWMNWVRQSPEKGLEWVAQIRNKPYNYETYYSDSVKGRFTISRDDSKSSVYLQMNNLRVEDMGIYYCTGSYKIMDYWGQGTSVTVS chain 2 DVVMTQTPLSLPVSLGDQASISCRSSQSLVHSNGNTYLRWYLQKPGQSPKVLIYKVSNRFSGVPDRFSGSGSGTDFTLKISRVEAEDLGVYFCSQSTHVPWTFGGGTKLEIK [chain 1 Y103K G104I], the Kd in series [1] is at least 10 µM. Further, in series [2], the yeast surface expression amounted to 0.711.
The corresponding values for chain 1 EVKLDETGGGLVQPGRPMKLSCVASGFTFSDYWMNWVRQSPEKGLEWVAQIRNKPYNYETYYSDSVKGRFTISRDDSKSSVYLQMNNLRVEDMGIYYCTGSYLGMIYWGQGTSVTVS chain 2 DVVMTQTPLSLPVSLGDQASISCRSSQSLVHSNGNTYLRWYLQKPGQSPKVLIYKVSNRFSGVPDRFSGSGSGTDFTLKISRVEAEDLGVYFCSQSTHVPWTFGGGTKLEIK [chain 1 Y103L D106I] are at least 10 µM and 0.764.
Consider chain 1 EVKLDETGGGLVQPGRPMKLSCVASGFTFSDYWMNWVRQSPEKGLEWVAQIRNKPYNYETYYSDSVKGRFTISRDDSKSSVYLQMNNLRVEDMGIYYCTGSYKRMDYVGQGTSVTVS chain 2 DVVMTQTPLSLPVSLGDQASISCRSSQSLVHSNGNTYLRWYLQKPGQSPKVLIYKVSNRFSGVPDRFSGSGSGTDFTLKISRVEAEDLGVYFCSQSTHVPWTFGGGTKLEIK [chain 1 Y103K G104R W108V], for which the Kd in series [1] is at least 10 µM. The yeast surface expression in series [2] was 0.32.
